Where no end group is shown, it is not given here.

Common to all, as to test: cell-based or functional assay
The target of one assay is T1, human PTH-1 receptor (human, UniProt Q03431 27-593).
T1 sequence (looked up): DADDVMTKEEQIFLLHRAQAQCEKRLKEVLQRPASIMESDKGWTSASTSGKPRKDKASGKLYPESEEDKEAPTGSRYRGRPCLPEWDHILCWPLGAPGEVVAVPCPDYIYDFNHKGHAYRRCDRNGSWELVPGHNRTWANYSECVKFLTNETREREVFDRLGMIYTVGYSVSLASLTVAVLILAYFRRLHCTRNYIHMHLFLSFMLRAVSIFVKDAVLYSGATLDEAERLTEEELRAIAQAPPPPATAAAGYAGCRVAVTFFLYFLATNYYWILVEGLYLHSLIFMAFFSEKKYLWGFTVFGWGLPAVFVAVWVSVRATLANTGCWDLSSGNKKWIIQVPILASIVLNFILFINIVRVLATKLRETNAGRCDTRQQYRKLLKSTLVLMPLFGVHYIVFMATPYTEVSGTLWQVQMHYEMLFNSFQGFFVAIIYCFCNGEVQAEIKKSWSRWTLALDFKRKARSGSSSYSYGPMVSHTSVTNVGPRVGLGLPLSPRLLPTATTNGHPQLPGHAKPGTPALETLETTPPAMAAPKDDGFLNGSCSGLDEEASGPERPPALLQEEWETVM

Assay [1] addresses T2, truncated rat PTH-1 receptor rΔNt (rat, UniProt P25961 182-591).
T2 sequence: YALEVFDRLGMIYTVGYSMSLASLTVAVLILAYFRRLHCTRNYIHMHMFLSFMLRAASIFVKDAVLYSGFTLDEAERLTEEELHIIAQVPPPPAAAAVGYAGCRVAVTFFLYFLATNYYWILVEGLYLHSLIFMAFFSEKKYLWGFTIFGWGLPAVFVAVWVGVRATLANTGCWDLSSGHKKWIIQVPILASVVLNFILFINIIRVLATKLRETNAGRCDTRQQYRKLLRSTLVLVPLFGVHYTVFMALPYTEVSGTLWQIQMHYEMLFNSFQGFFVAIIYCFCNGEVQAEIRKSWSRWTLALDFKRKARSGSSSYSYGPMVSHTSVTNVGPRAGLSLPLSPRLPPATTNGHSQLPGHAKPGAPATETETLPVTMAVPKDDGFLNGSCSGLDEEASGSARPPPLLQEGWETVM

Assay [2] addresses intact rat PTH-1 receptor with HA epitope tag (rWT-HA) (rat, UniProt P25961 23-92; P25961 27-591).

Sequence of intact rat PTH-1 receptor with HA epitope tag (rWT-HA) (P25961 whole entry, one chain of several): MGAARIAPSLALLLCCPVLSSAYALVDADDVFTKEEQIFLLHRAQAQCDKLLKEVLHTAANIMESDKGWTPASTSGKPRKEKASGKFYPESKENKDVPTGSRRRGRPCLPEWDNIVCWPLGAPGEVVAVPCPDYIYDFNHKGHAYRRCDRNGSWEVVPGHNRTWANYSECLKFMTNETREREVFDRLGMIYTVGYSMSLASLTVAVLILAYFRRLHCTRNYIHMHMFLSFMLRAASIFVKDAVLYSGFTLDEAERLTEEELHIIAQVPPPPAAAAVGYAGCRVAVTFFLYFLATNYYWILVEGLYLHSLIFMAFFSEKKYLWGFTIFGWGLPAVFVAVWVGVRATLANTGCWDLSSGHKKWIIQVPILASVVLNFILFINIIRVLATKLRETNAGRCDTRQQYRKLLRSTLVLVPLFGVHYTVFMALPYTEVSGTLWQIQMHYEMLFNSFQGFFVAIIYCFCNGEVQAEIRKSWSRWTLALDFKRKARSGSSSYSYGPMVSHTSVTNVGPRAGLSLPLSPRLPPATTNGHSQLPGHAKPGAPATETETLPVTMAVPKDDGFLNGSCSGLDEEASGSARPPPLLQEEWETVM

B1: rat PTH(1-14) (peptide, UniProt P04089 32-45, looked up)
peptide: AVSEIQLMHNLGKH-NH2
B1: in the assay with human PTH-1 receptor, the “cAMP formation over the basal level” value was roughly 20 fold and the “cAMP potency relative to PTH(1-34)” value was ~5 orders of magnitude. In addition, the “cAMP potency relative to PTH(1-34)” value in assay [1] is 2 orders of magnitude. The molecule also came in with a cAMP formation in assay [2] of 15 fold.

The values are drawn from patent US7169567 (GENERAL HOSPITAL, dated 2007).
